Measured values as given in patent publication US6410296.

B1: LM7, subclone of APNG1 expressing amino acids 1-280 (protein)
chain: MADPVYVGGFLVRYDEPPGEAELFLPSGVVDRWLRDCRGPLPLNVNHDESATVGYVAGLQNVRAGLFCLGRVTSPKFLDIVQKASEKSELVSRGPPSESSLRPDGVLEFLSGSYSGLSLSSRRDINAADGAAGDAETACFKHVALCSVGRRRGTLAVYGRQPDWVMERFPDLTEADREALRNQLSGSGEVAAKESAESSAAAAVDPFQSDSYGLLGNSVDALYIQERLPKLRYDKRLVGVTARESYVKASVSPAEQETCDIKVEKERPKEPEQSHVPTES
B2: LM8, subclone of APNG1 expressing amino acids 1-249 (protein)
chain: MADPVYVGGFLVRYDEPPGEAELFLPSGVVDRWLRDCRGPLPLNVNHDESATVGYVAGLQNVRAGLFCLGRVTSPKFLDIVQKASEKSELVSRGPPSESSLRPDGVLEFLSGSYSGLSLSSRRDINAADGAAGDAETACFKHVALCSVGRRRGTLAVYGRQPDWVMERFPDLTEADREALRNQLSGSGEVAAKESAESSAAAAVDPFQSDSYGLLGNSVDALYIQERLPKLRYDKRLVGVTARESYVKA

Target: CMV Colburn assembly protein precursor (product of APNG.5)

Protein | proteolytic activity
B1 | Both are proteolytically active using assembly protein precursor as a substrate
B2 | Both are proteolytically active using assembly protein precursor as a substrate
